The experiment deals with SARS-CoV-2 spike protein on spike pseudotyped lentivirus particles or authentic SARS-CoV-2 (SARS-CoV-2) (UniProt P0DTC2). Kind of experiment: cell-based or functional assay.

In patent US20230257726A1 one finds IC50 (µg/ml), pseudovirus data, which are given here for one substance.

With Wild type ACE2(614)-Fc (Fc fusion), the IC50 (µg/ml), pseudovirus came to 0.43 µg/mL.
